Laboratory results as given in patent US20250179192A1.

Target: KDR1-3 domains (UniProt P35968)
Assay: Octet BLI, KDR1-3 domains on biosensor, scFv in solution

KDR1-3 domains, sequence (P35968 20-327 limits assumed): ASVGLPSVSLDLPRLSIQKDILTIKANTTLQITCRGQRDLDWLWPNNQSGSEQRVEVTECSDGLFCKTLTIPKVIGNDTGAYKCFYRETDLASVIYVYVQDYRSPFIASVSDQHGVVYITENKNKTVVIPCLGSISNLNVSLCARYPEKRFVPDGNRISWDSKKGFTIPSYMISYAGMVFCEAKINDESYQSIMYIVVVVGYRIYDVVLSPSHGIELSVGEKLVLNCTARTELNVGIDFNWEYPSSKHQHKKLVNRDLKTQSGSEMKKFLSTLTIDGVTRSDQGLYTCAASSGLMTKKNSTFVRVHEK

B1: 6A6 (scFv form, off-rate screening) (scFv, from another filing, V domains shown)
VH: QMQLVQSGAEVKKPGASVKLSCKASGYTFSSYWMHWVRQAPGQRLEWMGEINPGNGHTNYNEKFKSRVTITVDKSASTAYMELSSLRSEDTAVYYCAKIWGPSLTSPFDYWGQGTLVTVSS
VL: SNFMLTQPPSVSVSPGKTARITCRGDNLGDVNVHWYQQRPGQAPVLVMYYDADRPSGIPERFSGSNSGNTATLTISGVEAGDEADYYCQVWDRTSEYVFGTGTKVTVLG
Question: Which koff does the source give for B1 here?
Answer: 0.000266 s⁻¹
